Data published in patent US20260125457A1 (Janssen / Centocor, published 2026).

Assays:
[1] = target: T1, CD3EG-HSA-6xHis (CD3W220.002) (human, UniProt P07766 22-118; P09693 23-103); assay: SPR, forced degradation: Chem Ox
T1 construct: also called human CD3; not shown: human serum albumin (HSA); 6xHis tag

[2] = target: T2, Avi/his-CalR-Ins5 (CALRW28.004) (human, UniProt P27797 18-417, limits assumed); assay: SPR, forced degradation: Chem Ox
T2 construct: also called human CALRins5
T2 sequence (looked up): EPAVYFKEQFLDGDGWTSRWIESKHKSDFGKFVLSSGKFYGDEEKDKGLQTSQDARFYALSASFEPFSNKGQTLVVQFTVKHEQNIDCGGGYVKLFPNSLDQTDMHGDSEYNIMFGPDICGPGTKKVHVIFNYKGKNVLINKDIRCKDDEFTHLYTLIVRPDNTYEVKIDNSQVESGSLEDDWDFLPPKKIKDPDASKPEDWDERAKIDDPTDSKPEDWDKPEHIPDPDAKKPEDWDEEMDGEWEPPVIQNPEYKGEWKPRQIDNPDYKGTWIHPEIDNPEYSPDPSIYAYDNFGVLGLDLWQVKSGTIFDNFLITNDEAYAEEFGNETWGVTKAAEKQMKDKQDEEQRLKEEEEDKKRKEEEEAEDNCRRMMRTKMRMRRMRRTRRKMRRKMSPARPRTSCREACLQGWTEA

[3] = target: T3, Flag/6xhis-CALRdel52 (CALRW12.007) (human, UniProt P27797 18-417); assay: SPR, forced degradation: Chem Ox
T3 construct: also called human CALRdel52
T3 sequence (looked up): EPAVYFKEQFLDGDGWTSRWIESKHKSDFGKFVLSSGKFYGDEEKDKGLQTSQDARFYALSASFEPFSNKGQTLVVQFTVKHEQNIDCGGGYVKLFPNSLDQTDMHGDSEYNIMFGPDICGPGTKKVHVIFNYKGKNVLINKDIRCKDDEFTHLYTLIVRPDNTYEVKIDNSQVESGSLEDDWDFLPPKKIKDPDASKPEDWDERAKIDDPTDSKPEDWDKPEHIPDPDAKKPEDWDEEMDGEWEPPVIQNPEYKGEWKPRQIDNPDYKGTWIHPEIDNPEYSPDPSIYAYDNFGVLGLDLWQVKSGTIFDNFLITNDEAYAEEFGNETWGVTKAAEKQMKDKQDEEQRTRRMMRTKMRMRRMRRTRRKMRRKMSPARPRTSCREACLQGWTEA

[4] = target: T4, wild-type calreticulin (CALRwt) expressed with MPL in engineered cancer cells (UniProt P27797 18-417, limits assumed); assay: flow cytometry on OCI-M2 MPL CALRwt cells, 1 h at 37 C, AF647 secondary antibody, Geometric Mean
T4 construct: whole, on cells; also called OCI-M2 MPL CALRwt
T4 sequence (looked up): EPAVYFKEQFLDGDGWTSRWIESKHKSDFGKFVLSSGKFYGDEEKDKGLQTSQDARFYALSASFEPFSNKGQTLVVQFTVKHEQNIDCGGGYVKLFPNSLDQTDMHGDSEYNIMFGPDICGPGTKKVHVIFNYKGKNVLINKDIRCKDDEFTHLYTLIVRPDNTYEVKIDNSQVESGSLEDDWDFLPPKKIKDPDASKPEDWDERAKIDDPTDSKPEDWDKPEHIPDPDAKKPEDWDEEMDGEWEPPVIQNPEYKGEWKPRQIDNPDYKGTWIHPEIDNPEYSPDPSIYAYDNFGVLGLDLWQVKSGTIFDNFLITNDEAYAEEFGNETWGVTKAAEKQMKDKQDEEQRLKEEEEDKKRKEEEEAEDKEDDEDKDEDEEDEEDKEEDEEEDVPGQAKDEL

[5] = target: T5, thrombopoietin receptor (MPL) on cells without CALRmut (UniProt P40238 26-635, limits assumed); assay: flow cytometry on ELF-153 MPL cells, 1 h at 37 C, AF647 secondary antibody, Geometric Mean
T5 construct: whole, on cells; endogenous on healthy donor CD34+ cells; also called TPOR
T5 sequence (looked up): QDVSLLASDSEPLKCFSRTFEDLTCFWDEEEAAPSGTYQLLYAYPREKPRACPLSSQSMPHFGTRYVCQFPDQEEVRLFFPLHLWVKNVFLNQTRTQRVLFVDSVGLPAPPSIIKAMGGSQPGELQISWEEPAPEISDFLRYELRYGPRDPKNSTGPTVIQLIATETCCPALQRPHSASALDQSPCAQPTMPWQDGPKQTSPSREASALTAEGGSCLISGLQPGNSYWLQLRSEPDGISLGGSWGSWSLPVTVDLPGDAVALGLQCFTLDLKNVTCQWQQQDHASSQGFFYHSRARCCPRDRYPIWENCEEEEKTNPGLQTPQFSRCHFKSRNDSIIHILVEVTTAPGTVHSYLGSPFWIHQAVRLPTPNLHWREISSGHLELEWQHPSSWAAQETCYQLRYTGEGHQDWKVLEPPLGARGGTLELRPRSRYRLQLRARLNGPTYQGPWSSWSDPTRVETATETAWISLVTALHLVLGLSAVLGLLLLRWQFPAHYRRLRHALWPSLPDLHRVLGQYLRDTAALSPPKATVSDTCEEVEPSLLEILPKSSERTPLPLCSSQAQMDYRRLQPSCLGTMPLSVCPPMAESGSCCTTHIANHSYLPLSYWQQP

[6] = target: T6, CALRins5 (mutant calreticulin, 5 base pair insertion, Type 2) expressed with MPL on engineered cancer cells (UniProt P27797 18-417); assay: cell-based or functional assay
T6 sequence (looked up): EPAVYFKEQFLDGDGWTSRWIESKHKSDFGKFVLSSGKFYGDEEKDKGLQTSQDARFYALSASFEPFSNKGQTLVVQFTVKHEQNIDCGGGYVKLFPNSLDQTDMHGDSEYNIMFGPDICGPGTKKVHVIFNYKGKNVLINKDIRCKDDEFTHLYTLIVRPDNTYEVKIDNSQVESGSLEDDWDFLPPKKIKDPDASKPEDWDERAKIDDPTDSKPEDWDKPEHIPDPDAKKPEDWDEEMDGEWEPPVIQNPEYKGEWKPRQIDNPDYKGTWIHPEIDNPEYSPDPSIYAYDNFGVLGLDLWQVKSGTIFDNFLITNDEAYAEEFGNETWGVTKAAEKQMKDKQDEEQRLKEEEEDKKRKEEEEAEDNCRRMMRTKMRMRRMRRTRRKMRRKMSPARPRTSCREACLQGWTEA

[7] = target: T6, CALRins5 (mutant calreticulin, 5 base …); assay: flow cytometry on ELF-153 MPL CALRins5 cells, 1 h at 37 C, AF647 secondary antibody, Geometric mean
Procedure: FIGS. 27A-27F depict binding of different CALRmutxCD3 antibodies to CALRmut-negative or CALRmut-positive cells. Flow cytometry was used to evaluate CALRmutxCD3 binding to CALRmut-negative and CALRmut-positive cancer cells in vitro. CALRmutxCD3 antibodies were tested on a panel of cell lines, engineered to express MPL and CALRmut, after 1 hour 37° C. incubation, with subsequent incubation with secondary AF647-labeled antibody. Geometric mean fluorescence intensity of AF647 was measured to determine antibody binding.

T1 sequence (P07766 other isoform, or with tags, fused parts or gaps): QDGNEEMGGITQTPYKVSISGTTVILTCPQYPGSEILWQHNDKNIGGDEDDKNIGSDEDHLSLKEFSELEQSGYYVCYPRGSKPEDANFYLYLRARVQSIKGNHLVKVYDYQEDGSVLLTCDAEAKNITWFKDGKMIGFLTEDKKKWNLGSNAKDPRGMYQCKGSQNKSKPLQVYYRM

B1: C3CRB73 CALRmut x CD3 bispecific antibody (bispecific antibody, human IgG1, kappa, L234A L235A)
heavy: EVQLLESGGGLVQPGGSLRLSCAVSGIDLSNNAISWVRQAPGKGLEYVGVIGNTGDTYYADSAKGRFTISRDSSKTTLYLQMNSLRAEDTAVYFCVRGPPSYSSSVKNIWGQGTLVTVSSASTKGPSVFPLAPSSKSTSGGTAALGCLVKDYFPEPVTVSWNSGALTSGVHTFPAVLQSSGLYSLSSVVTVPSSSLGTQTYICNVNHKPSNTKVDKKVEPKSCDKTHTCPPCPAPEAAGGPSVFLFPPKPKDTLMISRTPEVTCVVVSVSHEDPEVKFNWYVDGVEVHNAKTKPREEQYNSTYRVVSVLTVLHQDWLNGKEYKCKVSNKALPAPIEKTISKAKGQPREPQVYTLPPSREEMTKNQVSLSCAVKGFYPSDIAVEWESNGQPENNYKTTPPVLDSDGSFFLVSKLTVDKSRWQQGNVFSCSVMHEALHNRFTQKSLSLSPGK
light: DIQMTQSPSSVSASVGDRVTITCQSSQSVYNNNWLSWLQQKPGKAPKRLIYDASKLESGVPSRFSGSGSGTDFTLTISSVQPEDAATYYCAGGFTGNVYTFGGGTKVEIKRTVAAPSVFIFPPSDEQLKSGTASVVCLLNNFYPREAKVQWKVDNALQSGNSQESVTEQDSKDSTYSLSSTLTLSKADYEKHKVYACEVTHQGLSSPVTKSFNRGEC
scFv: DIQMTQSPSSLSASVGDRVTITCRARQSIGTAIHWYQQKPGCAPKLLIKYASESISGVPSRFSGSGSGTDFTLTISSLQPEDFATYYCQQSGSWPYTFGQGTKLEIKGGGSGGSGGCPPCGGSGGEVQLVESGGGLVKPGGSLRLSCAASGFTFSRYNMNWVRQAPGKGLEWVSSISTSSNYIYYADSVKGRFTFSRDNAKNSLDLQMSGLRAEDTAIYYCTRGWGPFDYWGCGTLVTVSSEPKSSDKTHTCPPCPAPEAAGGPSVFLFPPKPKDTLMISRTPEVTCVVVSVSHEDPEVKFNWYVDGVEVHNAKTKPREEQYNSTYRVVSVLTVLHQDWLNGKEYKCKVSNKALPAPIEKTISKAKGQPREPQVYTLPPSREEMTKNQVSLWCLVKGFYPSDIAVEWESNGQPENNYKTTPPVLDSDGSFFLYSKLTVDKSRWQQGNVFSCSVMHEALHNHYTQKSLSLSPGK
notes: IgG1-AAS; also called JNJ-88549968; CALRB421 Fab x CD3 spFv
Question: How did the “% Active” value [1] turn out when B1 was run?
Answer: The value was 95%.

Question: And the Kd [1]?
Answer: The Kd was 0.306 nM.

Question: And the “% Active” value [2]?
Answer: The value was 94%.

Question: What about the Kd [2] of the same binder?
Answer: Its Kd is 0.0408 nM.

Question: And the “% Active” value [3]?
Answer: The value was 94%.

Question: And the Kd [3]?
Answer: The Kd was 0.07 nM.

Question: Does B1 bind [4]?
Answer: Result: no binding (tested: 100 nM)

Question: Does B1 bind [5]?
Answer: Result: no binding (tested: 100 nM)

Question: What about the “% CD25+ CD8 T cells EC50 (nM), CALRmut patient blood, ELF-153 MPL CALRins5” value [6] of the same binder?
Answer: Its value is 1.68 nM.

Question: And the “% CD25+ CD8 T cells EC50 (nM), healthy donor blood, ELF-153 MPL CALRins5” value [6]?
Answer: Its value is 0.53 nM.

Question: And the “% CD69+ CD8 T cells EC50 (nM), CALRmut patient blood, ELF-153 MPL CALRins5” value [6]?
Answer: Its value is 1.08 nM.

Question: And the “% CD69+ CD8 T cells EC50 (nM), healthy donor blood, ELF-153 MPL CALRins5” value [6]?
Answer: Its value is 0.41 nM.

Question: And the “EC50 (read off the curve)” value [7]?
Answer: Its value is roughly 5 nM.
